Source: patent US20190032060

Legend:
[1] = biological target: Insulin receptor, endogenous on 3T3-L1 adipocytes (UniProt P15208+P15208); assay: cell_activity; conditions: 6 Nap-dU (n positions) [n positions 8,10,11,21,23,27 = modified dU]; 2-deoxyglucose uptake, 4 h treatment
[2] = biological target: T1, Insulin receptor (extracellular domain) (Homo sapiens?) (UniProt P06213+P06213); assay: filter; conditions: 200 mM HEPES, 510 mM NaCl, 25 mM KCl, 25 mM MgCl2, 37 C
[3] = biological target: T1, Insulin receptor (extracellular domain); assay: FP; conditions: 6 Nap-dU stated (n positions) [n positions 3,4,10,14,16,20,24 = modified dU]; filter binding assay in fact (see method p97-p99); 200 mM HEPES, 510 mM NaCl, 25 mM KCl, 25 mM MgCl2, 37 C

Insulin receptor, endogenous on 3T3-L1 adipocytes, sequence (P15208 28-748, chain 1 of 2): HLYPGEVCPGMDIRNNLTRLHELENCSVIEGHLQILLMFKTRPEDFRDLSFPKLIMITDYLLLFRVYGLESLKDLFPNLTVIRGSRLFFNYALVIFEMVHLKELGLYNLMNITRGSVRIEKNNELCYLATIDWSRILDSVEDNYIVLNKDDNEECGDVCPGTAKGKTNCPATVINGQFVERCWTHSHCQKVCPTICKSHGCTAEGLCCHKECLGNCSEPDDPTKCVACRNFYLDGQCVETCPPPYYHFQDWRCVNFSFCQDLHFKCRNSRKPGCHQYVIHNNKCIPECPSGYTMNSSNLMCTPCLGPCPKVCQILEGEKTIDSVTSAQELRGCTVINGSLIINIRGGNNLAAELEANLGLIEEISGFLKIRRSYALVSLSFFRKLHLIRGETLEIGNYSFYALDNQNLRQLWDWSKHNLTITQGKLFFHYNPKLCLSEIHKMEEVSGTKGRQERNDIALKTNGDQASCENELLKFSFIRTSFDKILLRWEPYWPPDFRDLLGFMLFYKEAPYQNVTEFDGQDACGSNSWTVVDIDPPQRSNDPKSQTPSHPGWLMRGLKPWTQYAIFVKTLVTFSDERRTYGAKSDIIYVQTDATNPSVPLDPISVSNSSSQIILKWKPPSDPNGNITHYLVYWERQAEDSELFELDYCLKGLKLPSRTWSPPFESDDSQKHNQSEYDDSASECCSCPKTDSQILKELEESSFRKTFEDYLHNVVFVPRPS
Insulin receptor, endogenous on 3T3-L1 adipocytes, sequence (P15208 753-1372, chain 2 of 2): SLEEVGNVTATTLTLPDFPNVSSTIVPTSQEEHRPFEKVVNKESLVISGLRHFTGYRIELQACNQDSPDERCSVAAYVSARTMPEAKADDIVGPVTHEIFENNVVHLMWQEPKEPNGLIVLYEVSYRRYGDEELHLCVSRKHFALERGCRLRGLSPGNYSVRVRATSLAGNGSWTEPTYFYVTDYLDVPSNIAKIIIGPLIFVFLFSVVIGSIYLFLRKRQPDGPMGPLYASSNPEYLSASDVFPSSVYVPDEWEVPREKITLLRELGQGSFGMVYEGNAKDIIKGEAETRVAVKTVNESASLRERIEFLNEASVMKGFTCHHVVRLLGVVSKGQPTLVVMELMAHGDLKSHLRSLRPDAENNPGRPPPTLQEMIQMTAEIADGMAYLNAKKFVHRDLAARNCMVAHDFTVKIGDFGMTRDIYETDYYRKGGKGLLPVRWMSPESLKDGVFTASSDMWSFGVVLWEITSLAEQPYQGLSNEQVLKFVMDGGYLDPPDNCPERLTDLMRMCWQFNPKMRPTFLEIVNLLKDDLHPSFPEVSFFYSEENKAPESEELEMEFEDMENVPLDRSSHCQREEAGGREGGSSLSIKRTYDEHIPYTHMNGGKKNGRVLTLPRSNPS

## CGCCTGGTGTTAAGACAACCTCTAGGTCAGGCG [IR-A48]
[1]
  EC50: 66.2 nM
[2]; 6 Nap-dU (n positions) [n positions 8,10,11,21,23,27 = modified dU]
  Kd: 3.5 nM

## TATGAGTGACCGTCCGCCTGGTGTTAAGACAACCTCTAGGTCAGGCGCAGTGACGGGTAGCAGCCACACCACCAGCCAAA [IR-A48F]
[2]; 8 Nap-dU in the variable region (n positions) [n positions 22,24,25,35,37,41,51,58 = modified dU]
  Kd: 6.9 nM

## CATTACGCATGAGTCTAGATCCGTCAG [IR-A62]
[3]
  Kd: 2.4 nM
